The values that follow come from article PMC12170185, “Dynamic RNA binding and unfolding by nonsense-mediated mRNA decay factor UPF2”.

For one data set, the target named is UPF2 MIF4G-D3 (UniProt Q9HAU5 761-1054). In words: EMSA; weak unquenched complex band; FA: 25 mM HEPES pH 7.45, 150 mM NaCl, 5% glycerol, 10 nM probe, temperature not stated; EMSA: 250 nM probe in 25 mM HEPES pH 7.45, 100 mM NaCl, 5% glycerol (protein dilution buffer 300 nM [sic] NaCl, 2 mM bME or 1 mM TCEP), 1 h on ice, gel at 4 C. As to conditions: protein: recombinant; tags: C-terminal TEV site and His6; label: 5' HEX, 3' BHQ-1; hairpin with bulges.

Data set [1] addresses T1, UPF2L (UniProt Q9HAU5 121-1227). In words: fluorescence spectroscopy (unquenching); FA: 25 mM HEPES pH 7.45, 150 mM NaCl, 5% glycerol, 10 nM probe, temperature not stated; EMSA: 250 nM probe in 25 mM HEPES pH 7.45, 100 mM NaCl, 5% glycerol (protein dilution buffer 300 nM [sic] NaCl, 2 mM bME or 1 mM TCEP), 1 h on ice, gel at 4 C. As to conditions: protein: recombinant; tags: C-terminal TEV site and His6; label: 5' HEX, 3' BHQ-1; hairpin with bulges. (Mobility shift assays separate free from complexed probe on a gel.)

The target in a further data set is UPF2 MIF4G-D2 (UniProt Q9HAU5 455-757). Kind of data set: EMSA; no defined complex band, no remodeling; FA: 25 mM HEPES pH 7.45, 150 mM NaCl, 5% glycerol, 10 nM probe, temperature not stated; EMSA: 250 nM probe in 25 mM HEPES pH 7.45, 100 mM NaCl, 5% glycerol (protein dilution buffer 300 nM [sic] NaCl, 2 mM bME or 1 mM TCEP), 1 h on ice, gel at 4 C. As to conditions: protein: recombinant; tags: C-terminal TEV site and His6; label: 5' HEX; hairpin with bulges.

Another data set deals with UPF2 MIF4G-D1 (UniProt Q9HAU5 120-486). The data set is described as above. The settings on record: protein: recombinant; tags: C-terminal TEV site and His6; label: 5' HEX; hairpin with bulges.
The target in another data set is UPF2 MIF4G-D1-2 (UniProt Q9HAU5 120-757). Described as above. As to conditions: protein: recombinant; tags: C-terminal TEV site and His6; label: 5' HEX; hairpin with bulges.
Another data set has as its target T2, UPF3B (UniProt Q9BZI7 41-262).
T2 sequence: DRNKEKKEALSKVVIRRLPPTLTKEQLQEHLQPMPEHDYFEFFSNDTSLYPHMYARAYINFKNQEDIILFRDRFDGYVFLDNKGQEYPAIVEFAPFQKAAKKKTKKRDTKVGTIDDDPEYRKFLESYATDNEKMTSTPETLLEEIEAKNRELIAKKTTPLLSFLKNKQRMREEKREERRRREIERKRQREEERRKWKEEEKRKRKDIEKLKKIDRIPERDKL
In words: EMSA; excess UPF3B gives oligomers in well; FA: 25 mM HEPES pH 7.45, 150 mM NaCl, 5% glycerol, 10 nM probe, temperature not stated; EMSA: 250 nM probe in 25 mM HEPES pH 7.45, 100 mM NaCl, 5% glycerol (protein dilution buffer 300 nM [sic] NaCl, 2 mM bME or 1 mM TCEP), 1 h on ice, gel at 4 C. The settings on record: protein: recombinant; label: 5' HEX; hairpin with bulges.

The next data set has as its target UPF2L;UPF3B (human?;human?, UniProt Q9HAU5;Q9BZI7 121-1227;41-262, |). Kind of data set: EMSA; higher affinity than UPF2L alone, lower than UPF3B; FA: 25 mM HEPES pH 7.45, 150 mM NaCl, 5% glycerol, 10 nM probe, temperature not stated; EMSA: 250 nM probe in 25 mM HEPES pH 7.45, 100 mM NaCl, 5% glycerol (protein dilution buffer 300 nM [sic] NaCl, 2 mM bME or 1 mM TCEP), 1 h on ice, gel at 4 C. As to conditions: protein: recombinant;recombinant; tags: C-terminal TEV site and His6;; copies: 1;1; label: 5' HEX; hairpin with bulges.

Data set [2] concerns the target T1, UPF2L. In words: fluorescence anisotropy; FA: 25 mM HEPES pH 7.45, 150 mM NaCl, 5% glycerol, 10 nM probe, temperature not stated; EMSA: 250 nM probe in 25 mM HEPES pH 7.45, 100 mM NaCl, 5% glycerol (protein dilution buffer 300 nM [sic] NaCl, 2 mM bME or 1 mM TCEP), 1 h on ice, gel at 4 C. The settings on record: protein: recombinant; tags: C-terminal TEV site and His6; label: 5' HEX; hairpin with bulges. Background: In fluorescence polarisation assays a small probe gives low polarisation when free and higher when bound to something large.

A further data set addresses UPF2L;UPF3B;UPF1 (human?;human?;human?, UniProt Q9HAU5;Q9BZI7;Q92900-2 121-1227;41-262;115-914, ||). In words: EMSA; FA: 25 mM HEPES pH 7.45, 150 mM NaCl, 5% glycerol, 10 nM probe, temperature not stated; EMSA: 250 nM probe in 25 mM HEPES pH 7.45, 100 mM NaCl, 5% glycerol (protein dilution buffer 300 nM [sic] NaCl, 2 mM bME or 1 mM TCEP), 1 h on ice, gel at 4 C. As to conditions: protein: recombinant;recombinant;recombinant; tags: C-terminal TEV site and His6;;; copies: 1;1;1; label: 5' HEX; hairpin with bulges.

The next data set deals with UPF2 MIF4G-D3;UPF3B (human?;human?, UniProt Q9HAU5;Q9BZI7 761-1054;41-262, |). The description is as above. The settings on record: protein: recombinant;recombinant; tags: C-terminal TEV site and His6;; copies: 1;1; label: 5' HEX; hairpin with bulges.
In a further data set the target is T3, UPF1 (UniProt Q92900-2 115-914).
T3 sequence: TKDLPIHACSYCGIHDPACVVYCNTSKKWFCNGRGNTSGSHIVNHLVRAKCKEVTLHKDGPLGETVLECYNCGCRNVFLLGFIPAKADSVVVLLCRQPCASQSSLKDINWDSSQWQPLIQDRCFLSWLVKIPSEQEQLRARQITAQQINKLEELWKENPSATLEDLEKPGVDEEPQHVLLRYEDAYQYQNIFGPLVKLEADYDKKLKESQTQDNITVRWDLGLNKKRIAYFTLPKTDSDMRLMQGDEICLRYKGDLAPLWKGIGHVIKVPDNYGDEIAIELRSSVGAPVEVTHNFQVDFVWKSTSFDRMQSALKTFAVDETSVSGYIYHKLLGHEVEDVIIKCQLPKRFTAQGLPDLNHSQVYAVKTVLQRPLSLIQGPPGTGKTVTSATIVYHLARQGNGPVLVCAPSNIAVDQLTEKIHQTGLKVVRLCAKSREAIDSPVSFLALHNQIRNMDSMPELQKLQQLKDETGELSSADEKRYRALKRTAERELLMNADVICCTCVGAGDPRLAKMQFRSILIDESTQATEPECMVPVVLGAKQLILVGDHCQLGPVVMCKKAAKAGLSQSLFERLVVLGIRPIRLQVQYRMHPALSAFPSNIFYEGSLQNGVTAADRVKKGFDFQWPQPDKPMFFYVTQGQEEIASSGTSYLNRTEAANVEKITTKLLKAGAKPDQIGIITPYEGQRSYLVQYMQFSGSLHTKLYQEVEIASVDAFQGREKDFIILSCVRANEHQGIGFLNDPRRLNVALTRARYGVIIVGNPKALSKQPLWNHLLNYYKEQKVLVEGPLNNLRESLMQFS
The data set is described as above. As to conditions: protein: recombinant; label: 5' HEX; hairpin with bulges.

T1 sequence (Q9HAU5 121-1227): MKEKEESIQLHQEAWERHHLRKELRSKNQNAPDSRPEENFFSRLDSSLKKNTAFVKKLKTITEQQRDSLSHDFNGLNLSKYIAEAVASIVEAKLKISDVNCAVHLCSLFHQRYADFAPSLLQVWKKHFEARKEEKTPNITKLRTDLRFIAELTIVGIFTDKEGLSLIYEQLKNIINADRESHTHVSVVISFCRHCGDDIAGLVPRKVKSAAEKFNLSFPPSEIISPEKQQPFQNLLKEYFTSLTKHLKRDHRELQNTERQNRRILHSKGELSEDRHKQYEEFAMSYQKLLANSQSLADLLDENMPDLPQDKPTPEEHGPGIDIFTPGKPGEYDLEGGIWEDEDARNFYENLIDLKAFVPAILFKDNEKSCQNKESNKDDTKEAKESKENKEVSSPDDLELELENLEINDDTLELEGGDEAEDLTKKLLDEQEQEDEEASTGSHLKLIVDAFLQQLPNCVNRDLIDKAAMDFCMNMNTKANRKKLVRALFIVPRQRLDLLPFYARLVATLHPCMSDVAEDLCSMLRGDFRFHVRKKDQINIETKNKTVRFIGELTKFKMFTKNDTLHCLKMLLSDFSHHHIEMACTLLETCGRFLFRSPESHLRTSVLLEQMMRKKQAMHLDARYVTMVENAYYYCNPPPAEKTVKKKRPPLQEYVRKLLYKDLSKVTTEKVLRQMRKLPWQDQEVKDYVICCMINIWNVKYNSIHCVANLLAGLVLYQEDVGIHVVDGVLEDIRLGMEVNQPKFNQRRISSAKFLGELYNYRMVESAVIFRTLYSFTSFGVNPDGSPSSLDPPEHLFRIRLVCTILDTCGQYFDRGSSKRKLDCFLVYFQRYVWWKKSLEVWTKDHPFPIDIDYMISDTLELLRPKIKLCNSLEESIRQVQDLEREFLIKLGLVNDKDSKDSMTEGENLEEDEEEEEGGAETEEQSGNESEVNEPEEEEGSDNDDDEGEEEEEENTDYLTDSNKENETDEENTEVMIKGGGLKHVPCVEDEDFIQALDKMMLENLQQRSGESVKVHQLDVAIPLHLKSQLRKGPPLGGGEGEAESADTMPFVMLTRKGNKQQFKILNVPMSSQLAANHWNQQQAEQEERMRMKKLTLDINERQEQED
UPF2 MIF4G-D1-2, sequence (Q9HAU5 120-757): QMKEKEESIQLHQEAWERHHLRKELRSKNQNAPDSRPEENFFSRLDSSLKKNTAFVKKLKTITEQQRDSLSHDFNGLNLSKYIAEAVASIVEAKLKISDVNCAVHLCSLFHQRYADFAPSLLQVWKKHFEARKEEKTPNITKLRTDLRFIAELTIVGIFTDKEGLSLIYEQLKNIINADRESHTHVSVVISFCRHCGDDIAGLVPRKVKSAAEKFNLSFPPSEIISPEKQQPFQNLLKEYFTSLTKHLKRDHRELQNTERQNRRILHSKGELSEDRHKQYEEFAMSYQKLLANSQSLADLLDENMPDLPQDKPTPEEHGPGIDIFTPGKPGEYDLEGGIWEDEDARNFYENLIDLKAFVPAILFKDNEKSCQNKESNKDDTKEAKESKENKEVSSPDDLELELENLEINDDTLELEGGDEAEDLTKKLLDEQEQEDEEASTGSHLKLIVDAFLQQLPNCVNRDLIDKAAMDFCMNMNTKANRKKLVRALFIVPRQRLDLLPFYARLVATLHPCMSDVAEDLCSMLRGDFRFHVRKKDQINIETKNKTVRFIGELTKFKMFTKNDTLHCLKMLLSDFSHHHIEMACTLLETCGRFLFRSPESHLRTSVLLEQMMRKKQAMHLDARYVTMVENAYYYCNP
UPF2 MIF4G-D3;UPF3B, sequence (Q9HAU5 761-1054, one chain of several): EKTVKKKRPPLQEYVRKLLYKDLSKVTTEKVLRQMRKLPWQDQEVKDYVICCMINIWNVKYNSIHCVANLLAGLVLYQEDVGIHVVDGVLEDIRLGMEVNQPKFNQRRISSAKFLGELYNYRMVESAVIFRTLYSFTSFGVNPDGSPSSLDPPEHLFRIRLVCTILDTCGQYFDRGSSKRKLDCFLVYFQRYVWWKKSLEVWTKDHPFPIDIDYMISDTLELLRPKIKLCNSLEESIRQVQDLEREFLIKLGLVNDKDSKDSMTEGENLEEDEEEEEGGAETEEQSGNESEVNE
UPF2 MIF4G-D3, sequence (Q9HAU5 761-1054): as the sequence (Q9HAU5 761-1054, one chain of several) above
UPF2 MIF4G-D2, sequence (Q9HAU5 455-757): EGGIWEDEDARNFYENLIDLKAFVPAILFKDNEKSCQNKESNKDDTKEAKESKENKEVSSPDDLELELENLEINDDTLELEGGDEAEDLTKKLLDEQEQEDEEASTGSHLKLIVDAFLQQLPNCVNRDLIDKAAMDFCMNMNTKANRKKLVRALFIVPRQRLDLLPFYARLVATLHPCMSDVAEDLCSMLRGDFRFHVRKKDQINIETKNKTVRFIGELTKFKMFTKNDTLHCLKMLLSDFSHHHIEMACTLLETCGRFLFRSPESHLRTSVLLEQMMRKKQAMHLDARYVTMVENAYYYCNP
UPF2L;UPF3B;UPF1, sequence (Q9HAU5 121-1227, one chain of several): as the sequence (Q9HAU5 121-1227) above
UPF2L;UPF3B, sequence (Q9HAU5 121-1227, one chain of several): as the sequence (Q9HAU5 121-1227) above
UPF2 MIF4G-D1, sequence (Q9HAU5 120-486): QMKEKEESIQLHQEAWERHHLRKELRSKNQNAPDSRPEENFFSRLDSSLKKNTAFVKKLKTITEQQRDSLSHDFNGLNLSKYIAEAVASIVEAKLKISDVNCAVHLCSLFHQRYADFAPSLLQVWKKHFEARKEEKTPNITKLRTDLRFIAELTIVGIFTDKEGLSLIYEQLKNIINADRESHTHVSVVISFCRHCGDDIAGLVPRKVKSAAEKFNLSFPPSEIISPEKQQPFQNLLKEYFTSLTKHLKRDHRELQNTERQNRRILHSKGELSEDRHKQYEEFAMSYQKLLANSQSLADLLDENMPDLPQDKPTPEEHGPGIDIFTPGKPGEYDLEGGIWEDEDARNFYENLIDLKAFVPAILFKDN

For the molecule CCCUGAGCUGACGCAGCACCUGGG (structured_RNA, 3' BHQ-1) [HEX_hp-RNA_BHQ molecular beacon], the binding result with UPF2 MIF4G-D3 and with UPF2L [1] was “binds” each time.

On to CCCUGAGCUGACGCAGCACCUGGG (structured_RNA) [24 nt hp-RNA], for which the binding result with UPF2 MIF4G-D2 is on record as “no binding”; in the data set with UPF2 MIF4G-D1 it was “no binding”; in the data set with UPF2 MIF4G-D1-2, “no binding”; with UPF3B it was “binds”; with UPF2L;UPF3B, “binds”; with UPF2L;UPF3B;UPF1 it was “binds”. Also, the binding result in the data set with UPF2 MIF4G-D3;UPF3B and with UPF1 was “binds” throughout. The Kd (in general, the free concentration of one partner at which half of the binding sites on the other are occupied at equilibrium, for simple one-to-one binding) with UPF2L [2] turned out to be 223 nM.
